Data as given in publication PMC4734682, “Evidence for the Nucleo-Apical Shuttling of a Beta-Catenin Like Plasmodium falciparum Armadillo Repeat Containing Protein” (PLoS ONE, 2016).

Legend:
[1] = molecular target: T1, rPfARO (Plasmodium falciparum 3D7) (UniProt C0H4A5); experiment: competition; settings: EMSA: 10 mM Tris-Cl pH 7.5, 100 mM KCl, 5 mM MgCl2, 2 mM DTT, 6% glycerol, 50 ug/ml BSA, 25 ul; temperature not stated
T1 sequence: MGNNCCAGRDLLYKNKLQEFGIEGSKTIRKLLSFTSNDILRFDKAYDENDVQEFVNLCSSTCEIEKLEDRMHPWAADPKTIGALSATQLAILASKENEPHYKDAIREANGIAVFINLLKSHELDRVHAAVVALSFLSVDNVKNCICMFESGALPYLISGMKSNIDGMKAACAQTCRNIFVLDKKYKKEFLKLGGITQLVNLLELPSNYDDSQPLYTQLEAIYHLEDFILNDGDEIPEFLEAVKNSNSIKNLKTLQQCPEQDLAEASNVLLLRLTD

[2] = molecular target: T1, rPfARO (Plasmodium falciparum 3D7); experiment: EMSA; settings: EMSA: 10 mM Tris-Cl pH 7.5, 100 mM KCl, 5 mM MgCl2, 2 mM DTT, 6% glycerol, 50 ug/ml BSA, 25 ul; temperature not stated
[3] = molecular target: the molecule itself; experiment: non-reducing SDS-PAGE; purified rPfARO run under non-reducing conditions, stained gel and anti-His immunoblot; ~60 kDa dimer band beside the ~32 kDa monomer; dimer band diminished progressively with increasing DTT; both bands confirmed as PfARO by LC-MS
[4] = molecular target: the molecule itself; experiment: non-reducing SDS-PAGE; immunoblot of parasite lysate under non-reducing conditions with anti-PfARO antibodies; ~60 kDa dimer beside the ~32 kDa monomer

Question: How did the binding [1] turn out when “TTTTATATCATTTAATTCATATGTCTTTTCTTTCTTCTTCGCCTTCAGATCATAAGGATCTTGGACCTTTTTTCTTTCCTTCTTTTCAGAACACAAAGATGTACAACTAAAAGCATTGTCTGTATATGTTGAACGATTACTCTTGAAGGATCCCG (double strand) [AT-rich PfgyrA DNA]” was run?
Answer: The binding was “binds”.

Question: What about the binding [2] of the same molecule?
Answer: Its binding is “binds”.

B1: Recombinant PfARO (P. falciparum Armadillo Repeats Only protein), full length, C-terminal 6-His tag (natural protein, P. falciparum (strain 3D7), UniProt C0H4A5 1-275, looked up)
chain: MGNNCCAGRDLLYKNKLQEFGIEGSKTIRKLLSFTSNDILRFDKAYDENDVQEFVNLCSSTCEIEKLEDRMHPWAADPKTIGALSATQLAILASKENEPHYKDAIREANGIAVFINLLKSHELDRVHAAVVALSFLSVDNVKNCICMFESGALPYLISGMKSNIDGMKAACAQTCRNIFVLDKKYKKEFLKLGGITQLVNLLELPSNYDDSQPLYTQLEAIYHLEDFILNDGDEIPEFLEAVKNSNSIKNLKTLQQCPEQDLAEASNVLLLRLTD
notes: PfARO, Plasmodium falciparum strain 3D7, PlasmoDB PF3D7_0414900; full length open reading frame of 275 amino acids amplified from 3D7 cDNA; putative NES at residues 198-204 (LVNLLEL); nine cysteines; Cloned NdeI/XhoI into pET-24b; also called rPfARO; ARM Repeats Only; source: E. coli BL21 (DE3) Codon+, purified (Ni-NTA, size exclusion chromatography on Superdex-200); not shown: His6, C-terminal, …
Question: B1 was tested. Which “stoichiometry N” value [3] did it give?
Answer: Its value is 2.

B2: Native PfARO parasite protein (natural protein, UniProt C0H4A5 1-275, looked up)
chain: MGNNCCAGRDLLYKNKLQEFGIEGSKTIRKLLSFTSNDILRFDKAYDENDVQEFVNLCSSTCEIEKLEDRMHPWAADPKTIGALSATQLAILASKENEPHYKDAIREANGIAVFINLLKSHELDRVHAAVVALSFLSVDNVKNCICMFESGALPYLISGMKSNIDGMKAACAQTCRNIFVLDKKYKKEFLKLGGITQLVNLLELPSNYDDSQPLYTQLEAIYHLEDFILNDGDEIPEFLEAVKNSNSIKNLKTLQQCPEQDLAEASNVLLLRLTD
notes: PfARO, Plasmodium falciparum strain 3D7, PlasmoDB PF3D7_0414900; native protein detected at ~32 kDa; source: endogenous, P. falciparum 3D7 schizont-stage parasite lysate (detergent based)
Question: How did the “stoichiometry N” value [4] turn out when B2 was run?
Answer: Its value is 2.
